According to the nanobody polyreactivity screen of Harvey et al. (2022):

Test: yeast display, Sf9 membrane polyspecificity reagent, FACS + sequencing; frameworks hold sequencing errors
Procedure, shortened: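 In a synthetic yeast display library (Saccharomyces cerevisiae BJ5465), nanobody expression was induced with galactose for 36–48 hours. FACS gates were set low and high (top ~1%) using anti-HA fluorescence for expression and streptavidin fluorescence for binding of the Sf9 membrane reagent. Each polyreactivity label is drawn from the gate of origin.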

Sequence	polyreactivity (PSR sort gate)
QVQLVESGGGLVQAGGSLRLSCAASGRTFYFYAMGWYRQAPGKEWELVAAISWSGGRTYYADSVKGRFTISRDNAKNTVYLQMNSLNPEDTAVYYCAAEYRWSVGYWRYGLDDYWGQGTQVTVSS	high polyreactivity
QVQLVESGGGLVQAGGSLRLTCAASGITFRAYVMGWYRQEPGKERELVAAINRRGGSTYYADSVKGRFTISRDNAKNTVYLQMNSLKPEDTAVYYCAAGLYSTGYTYDYWGQGTQVTVSS	high polyreactivity
QVQLVESGGGLVQAGGSLRLSCAASGSIFRYYDMGWYRQAPGKERELVAAISWSGGTTYYADSVKGRFTISRDNAKNSVYLQMNSLNPEDTAVYYCNRVRYPSFVYWGQGTQVTVSS	high polyreactivity
QVQLVESGGGLVQAGGSLRLSCAASGSTFSYYAMGWYRQAPGKERELVAAITKRGGSTYYADSVKGRFTISRDNAKNTVYLQMNSLKPEVTAVYYCAAKRKSYYSYNFDYWGQGTQVTVSS	high polyreactivity
QVQLVESGGGLVQAGGSLRLSCAASGSTFHTYTMGWYRQAPGKERELVAGISRSGGSTYYADSVKGRFTISRDNAKNTVYLQMNSLKPEDTAVYYCNALSSKTDTYDYWGQGTQVTVSS	high polyreactivity
QVQLVESVGGLVQAGGSLRLSFAASGSTFDVYAMGWYRQAPGKERELVAAIRSSGGSTFYADSVKGRFTISRDNAKNIVYLQMNSLNPEDTAVYYCAARSFVVSGYNKYYEYGYWGQGTQVTVSS	low polyreactivity
QVQLVESGGGLVQAGGSLRLRCAASGRIFTYYTMGWYIQAAGKEMELDANITTGGSTNYADSVKGRFTISRDNAENTVYLQMNSLKPEDSAVYYCNKDGVVEVRFTGRHEYDYWGQGTQVTVSS	low polyreactivity
QVQLLESGGGLVQAGGSLRLSCAASGWYRQAPGKERELVAAITYSGGSTYYADSVKGRFTISRDNAKNTVYLQMNSLKPEDTAVYYCAVATGLLYKSHGYWGQGTQVTVSS	low polyreactivity
QVQLVESGGGLVQARGSLRLSCAASGLTFYYYVMGWYRQAPGKERELVAAISYSGGRTYYADSVKGRFTISRDNAKNTVYLQMNSLKPEDTAVYYCAAQSRYGGKFYYWGQGTQVTVSS	high polyreactivity
QVQLLESGGGLVQAGGSLRLSCAASGLTFGWYAMGWYRQAPGKERELVAAITWNSGSTYYADSVKGRFTISRDNAKNTVYLQMNSLKPVDTAVYYCAAGYQDSQEYDYWGQGTQVTVSS	low polyreactivity
QVQLVESGGGLVQAGGSLRLSCAASGRTFGINAMGWYRQAPGKERELVAVISGSGGNTYYADSVKGRFTISRDNEKNTVYLQMNSLKPEDTAVYYCATRYEKFRYDYWGQGTQVTVSS	low polyreactivity
QVQLVESGGGLVQEGGSLRLSCAASGRIFDVYVMGWYRQAPGKERELVDAISQSGGRTYYADSVKGRFTISRDNAKNTVYLQMNSLKPEDTAVYYCNTVTSLATNFSGFGYWGQGTQVTVSS	high polyreactivity
QDQLVESGGGLVQAGGSLRLSCAASGITFAGYARGWYRQAPGKERELVAAITGRGGSTYYADSVKGRFTISRDNAKNTVYLQMNSLKPEDTAVYYCAARSSKTGTGVRFGYWGQGTQVTVSS	high polyreactivity
QVQLVETGGGLVQAGGSLRLSCAASGNTFKYYAMGWYRQAPGKERELVAAISYSGGSTYYADSVKGRFTISRDNAKNTVYLQMNSLKPEDTAVYYCAADLDSERYYWGQGTQVTVSS	low polyreactivity
QVQLVESGGGLVQAGGSLRLSCAASGLTFVRYTMGWYRQAPGKERELVADISSVGSTYYADSVKGRFTISRDNAKNTVYLQMNSLKPQDTAVYYCNTSYIIWYDSWGQGTQVTVSS	low polyreactivity
QVQLVESGGGLVQAGGSLRLSCAASGSNFWAYTMGWYRQAPGKERELVAVITDSTGSTYYADSVKGRFTISRDNAMNTVFLQMNSLKPEDTAVYYCAARLWIGYLKYDYWGQGTQVTVSS	high polyreactivity
QVQLVESGGGLVQAGGSLRLSCAASGYIFVHYAMGWYRQAPGKERDLVAAITRGGNTYYADSVKGRFTISRDNANNTVNLQMNSLKPEDTAVHYCAADNYGRGAGYDYWGQGSQVTVSS	high polyreactivity
QVQLVESGGGLVQAGGSLRLSCAASGRILRQYAMGWYRQAPGKERELVARISYSGGSTYYADSVKGRFTISRDNAKNTVYLQMNSLKPEDTAVYYCAARRPYKYDYWGQGTQVTVSS	high polyreactivity
QVQLVESGGRLVQAGGSLRLSCAPSGIILSLYAMGWYRQAPGKVRELVATIRFSGVSTYYADSVKGRFTISRDNAKNTLYLQLTSLKPEDTAVYYCNKHLATTFTVSRFDYWGQGTQVTVSS	low polyreactivity
QVQLVESGGGLVQAGGSLRLSCAASGSTSQRNAMGWYRQAPGKERELVAAISRSGGSTSYADSVKGRFTISRDNAKNTVYLQMNSLKPEDTAVYYCNTDRRIYRVWYYYWGQGTQVTVSS	high polyreactivity
QVQLVESGGGLVQAGGSLRLSCAASGFTFSQYAMGWYRQAPGKERELVAAITFSGDSTYYADSVKGRFTISRDNAKNTVYLQMNSLKPEDTAVYYCNADDWWGGYDYWGQGTQVTVSS	low polyreactivity
KVQLVESGGGLVQAGGSLRLSCAASGSTFFDNAKGWYRQAPGKERELVDAISWSGGSTYYADSVKGRFTISRDNAKNTVYFQMNSLKPEDTAVYYCAADWGHGTQVTVSS	low polyreactivity

Sequence	polyreactivity (PSR sort gate)
QVQLVESAGGLVQAGGSLRLSCAASGSIFVRNAMGWYRQAPGKERELVARISSRGGSTYYADSVKGRFTISRDNAKNTVYLQMISLKPEDTAVYYSNRDRTWQTNDYWGQGTQVTVSS	high polyreactivity
QVQLVESGGGLVQAGGSLRLSCAASGITFPLYAMGWYRQAPGKERELVAAITSTGGTTYYADSVKGRFTISRDNAKNTVYLQMNSLKPEDTAVYYCAAEWLVYGYQRGYYYWGQGTQVTVSS	high polyreactivity
QVQLVESAGGLVQAGGSLRLSCAASGRTFAYNAMGWYRQAPGKERELVADITSGGSTYYADSVKWRFTISRDNAKNTVYLQMNSLKPEDTAVYYCNKLYRGGYGYWGQGTQVTVSS	high polyreactivity
QVHLVESGGGLVKAGGSLRLSCAASGSTKNYVMGWYRQAPGKERELVAAISRGSSTYYADSVKGRFTISRDNAKNTVYLQMNSLKPEDTAVYYCAARGPWQAPYDYWGQGTQVTVSS	high polyreactivity
QVQLVESGGGLVQAGGSLRLSCAASGRIFYLNGKGWYRQAPGKERELVAAISSSDDSTYYADSVKGRFTISRDNAKNTVYLQMKSLKPEDTAVYYCAAGYHQVQNYGDAYYWSELYSWGQGTQVTVSS	low polyreactivity
QVQLVESGGGLVQAGGSLRLSCAASGSTFYTYAMGWYRQAPGKEMELVADITRGGSTYYADSVKGRFTISRDNAKNTVYLQMNSLKPEDTAVYYCAADYTWLSFFEFDYWGQGTQVTVSS	high polyreactivity
QVQLVESGGGLVQAGGSLRLSCAASGRTFYLYAMGWYRPAPGKERELVAAITWRGGSTYYADSVKGRFTISRDNAKNTVYLQMNSLKPEDTAVYYCAAVTFFYYSAVRYEYYYWGQGTQVTVSS	high polyreactivity
QVQLVESGGGLVQEGGSLRLSCAASGSTFRTYAMGWYRQAPGKERELVAAISGDTSTNYADSVKGRFTISRDNAKNTVYLQMNSLKPEDTAVYYCAAYWTTYATLWYDYWGQGTQVTVSS	low polyreactivity
QVQLVESWGGLVQAGGSLRLSCAASGITFDGYDMGWYRQAPGKERELVATIDSGGITYYADSVKGRFTISRDNAKNTVYLQMNSLKPEDTAVYYCNADEWYYNFDIVEFDYWGQGTQVTVSS	low polyreactivity
QVQLVESGGGLVQAGGSLRLSCAASGRTFRPNAMGWYRQAPGKERELVASITRRGGTTYYADSVKGRFTNSRDNAKNTVYLQMNSLKPEDTAFYYCIGPRGYSSTRNGYWGQGTQVTVSS	high polyreactivity
QVQLVESGGGLVQAGGSLRLSCAASGGIFRGNAMGWYRQAPGKERELVAAISSSGGSTYYADSVKGRFTISRDNAKNTVYLQMNSLKPEDTAVYYCAATRYSTRFGARGYWGQGTQVTVSS	high polyreactivity
QVQLVESGGGLVQAGGSLRLSCAASGSIFVQYAMGWYRQAPGKERELVAGITISGGRTYYADSVKGRFTISRDNAKNTVYLLMNSLKPEDTAVYYSNADVTRASSRYNSWGHGTQVTVSS	low polyreactivity
QVQLVESVGGLVQAGGSLRLSCAASGRTFSKYAMGWYRQEPGQERELVAAITSRGSSTYYADSVKGRFTISRDNANNTVYLQMNSLKPEETAVYYCNAGGYSKRTGRYRSGSDYWGQGTHVTVSS	high polyreactivity
QVQLEESGGGLVQAGGSLRLSCAASGSTFVYYPMGWYRQATGKERELVAVISDDGGTYYADSVKGRFTISRDNAKNTVYLQMNSLKPEDTAVFYCAKDYYGGAFYWYNDRSGDYWGQGTQVTVSS	low polyreactivity
QVQLVESGGGLVQAGGSLRLSCAASGSIFYYYAMGCYTQAPGKERELVAAITSGGSTYYADSVNGRFTISRDNAKNSGYLQMNSLKPEDTAVYYCNNAFPYFDDYWGQGTQVTVSS	low polyreactivity
QVQLVDSGGGLVQAGGSLRLSCAASGSTFPDNAMGWYRQAPGKERALVAAIRWTGGSTYYADSVKGRFTISRDNAKNTVYLQMNSLKPEDTAVYYCNTAYTVSWRSPYDYWGQGTQVTVSS	high polyreactivity
QVQLVETGGGVVHAGGSLRLSCAASGRIFRVDDMGWYRKAPGQERELVATINPTGGSTSYADSVKGRFTNSRDNAKNTVYLQMNSLTTEDTAVYYCAADCWYSVRKNWSRSGSFPFDYWRQGTQVTVSS	high polyreactivity
QVQLVESGGGLVQAGGSLRLSCAASGRTFSSTAMGWYRPAPGKERELVATITYSGGSTYYADSVKGRFTISRDNAKNTVYLQMISLKPEDCAVYYGAVRVSTYMTKYYYWGQGTQVTVSS	low polyreactivity
QVQLVESGGGLVQAGGSLRLSCAASGITFDQYVMGWYRQAPGKERELVAAIDRSDGITYYADSVKGRFTISRDNAKNSVYLQMNSLTPEDTAVYYCAAVTYTPVYGGYYWDGGYWGQGTQVTVSS	low polyreactivity
QVQLVESGGGLVQAGGSLRLSCAASGITFYGNAMGWYRQAPGKERELVAGISSGGSTSYADSVKGRFTISRDNAKNTVYLQMDSLKPEDTAVYYCAKRWYYGTRYGTSYIRDYWGQGTQVTVSS	high polyreactivity
QVQLVESGGGLVQAGGSLRLSCAASGSTSPRNAMGWYRQAPGKERELVAAISSGGRTNYADSVKARFTISRDNAKNTDYLQMNSLKREDTAVYYCAAEVQSTYWGQGTQVTVSS	low polyreactivity
